Blank lines part the entries; values can stand above or below the substance they belong to.
Assays:
PlexA1 = assay: morpholino-based PlexA1 knockdown in zebrafish, intersegmental vessels; format: in vivo; settings: tg(kdrl:eGFP) zebrafish, 28 hours post fertilization, vs no injection or mismatch morpholino
From the text: We observed PlexA1 positive blood vessels in the tissue array of GBM samples (Figure 5A). […] To address this possibility we first used a transgenic zebra-fish model tg(kdrl:eGFP) highlighting the endothelial cells. This allowed us to assess the angiogenic activities in vivo by analyzing formation of intersegmental vessels (ISVs) after morpholino-based knockdown of the target. […] (Scale bar: 40 μm). […] Representative images of control, Plexin-A1 mismatch and […]1 knockdown embryos (plxna1MO) are shown 28 hours post fertilization (28hpf). […] (E) Live-monitoring of VEGF-induced HUVEC cell migration assay using the […] system (transwell assay). (F) Microphotographs illustrating the expression of PlexA1 in blood vessels of the chick chorioallontoic membrane (upper left picture). Microphotographs (middle and lower left pictures) and camera lucida drawing (middle and lower right pictures) showing representative fields of observation after 24 h incubation with VEGF (100 ng/ml, +vehicle) or […]1 (10^-7 M). The number of VEGF-induced new blood vessels is shown in the graph. For knockdown of PlexA1 in the zebra fish we used morpholino oligonucleotides described by. MO ([NT]) was injected at the one-cell stage. Animals ([…] incubated at 28.5°C for 5 hours before treatment with 1-phenyl-2-thiourea (PTU) to prevent pigment formation. […]

[1] = biological target: Plexin-A1 (human (endogenous in U373MG and U118MG)) (UniProt Q9UIW2); assay: proximity ligation; proximity ligation assay on tumor tissue sections of U118MG-Luc xenografts; mice treated with MTP-PlexA1 against control mice
[2] = biological target: Plexin-A1 (human (endogenous in U373MG and U118MG)) (UniProt Q9UIW2); assay: proximity ligation; in situ proximity ligation assay (Duo-link) on U373MG cells; MTP-PlexA1 (10^-7 M) added, NRP1/PlexA1 complexes counted against vehicle
[3] = biological target: Plexin-A1 (human (endogenous in U373MG and U118MG)) (UniProt Q9UIW2); assay: co-IP; immunoprecipitation of PlexA1 from U373MG cells stimulated with Sema3A (100 ng/ml) or VEGF (100 ng/ml) with MTP-PlexA1 (10^-7 M); amount of co-precipitated NRP1 and PlexA4 against no peptide
NRP1/PlexA1 complexes = assay: in situ proximity ligation assay (Duo-link), NRP1/PlexA1 complexes in U373MG cells; format: cell-based, human; settings: specificity control, MTP-Neu at 10–6 M
Experimental: “Zip sequence” is the positive control of dimerization and “Empty” is the negative control of this bacterial system. (C, D) SPR assay (Biacore) to quantify MTP-PlexA1 interactions with PLexA1, NRP1 and VEGFR2 TMDs. (E) Proximity ligation assay showing that MTP-PlexA1 (10^−7 M) decreases the number of PLexA1-NRP1 interactions (green dots) in U373MG cells (scale bar = 20 μm).
Additional specificity controls were performed using a mutated version of MTP-PlexA1 (in which 3 glycines of the GxxxGxxxG motif were replaced by 3 valines or MTP-Neu, an anti-breast cancer peptide known to not interact with PlexA1) as described in Supplementary Figure S2. […] Similar results were obtained when cells were exposed to VEGF (39.4% NRP1 and 35.4% PlexA4, Figure 4B).
Supplementary Figure S2: Specificity controls were performed using a mutated version of MTP-PlexA1 […]
LVIVAVLIAYKRK). Such mutations have been previously shown to be sufficient to lose activity of NRP1 antagonist membrane domain targeting peptide (Roth et al., 2008 Mol Biol Cell). We also used MTP-Neu, a transmembrane domain targeting peptide known to […]
M, a concentration previously shown to produce maximal antagonist activity of the peptide. Additionally, we also repeated the in vitro angiogenic assay on matrigel using HUVEC cells. […]
to MTP-PlexA1. These experiments confirmed the specificity of MTP-PlexA1.
(1 picture or pasted object on this page, not shown here)

NRP1 or PlexA1 = settings: ref Arpel et al., 2014, Cell Reports; cited from earlier work
From the text: Such mutations have been previously shown to be sufficient to lose activity of NRP1 antagonist membrane domain targeting peptide (Roth et al., 2008 Mol Biol Cell).

Sequence of UniProt Q9UIW2 (Q9UIW2 27-1896): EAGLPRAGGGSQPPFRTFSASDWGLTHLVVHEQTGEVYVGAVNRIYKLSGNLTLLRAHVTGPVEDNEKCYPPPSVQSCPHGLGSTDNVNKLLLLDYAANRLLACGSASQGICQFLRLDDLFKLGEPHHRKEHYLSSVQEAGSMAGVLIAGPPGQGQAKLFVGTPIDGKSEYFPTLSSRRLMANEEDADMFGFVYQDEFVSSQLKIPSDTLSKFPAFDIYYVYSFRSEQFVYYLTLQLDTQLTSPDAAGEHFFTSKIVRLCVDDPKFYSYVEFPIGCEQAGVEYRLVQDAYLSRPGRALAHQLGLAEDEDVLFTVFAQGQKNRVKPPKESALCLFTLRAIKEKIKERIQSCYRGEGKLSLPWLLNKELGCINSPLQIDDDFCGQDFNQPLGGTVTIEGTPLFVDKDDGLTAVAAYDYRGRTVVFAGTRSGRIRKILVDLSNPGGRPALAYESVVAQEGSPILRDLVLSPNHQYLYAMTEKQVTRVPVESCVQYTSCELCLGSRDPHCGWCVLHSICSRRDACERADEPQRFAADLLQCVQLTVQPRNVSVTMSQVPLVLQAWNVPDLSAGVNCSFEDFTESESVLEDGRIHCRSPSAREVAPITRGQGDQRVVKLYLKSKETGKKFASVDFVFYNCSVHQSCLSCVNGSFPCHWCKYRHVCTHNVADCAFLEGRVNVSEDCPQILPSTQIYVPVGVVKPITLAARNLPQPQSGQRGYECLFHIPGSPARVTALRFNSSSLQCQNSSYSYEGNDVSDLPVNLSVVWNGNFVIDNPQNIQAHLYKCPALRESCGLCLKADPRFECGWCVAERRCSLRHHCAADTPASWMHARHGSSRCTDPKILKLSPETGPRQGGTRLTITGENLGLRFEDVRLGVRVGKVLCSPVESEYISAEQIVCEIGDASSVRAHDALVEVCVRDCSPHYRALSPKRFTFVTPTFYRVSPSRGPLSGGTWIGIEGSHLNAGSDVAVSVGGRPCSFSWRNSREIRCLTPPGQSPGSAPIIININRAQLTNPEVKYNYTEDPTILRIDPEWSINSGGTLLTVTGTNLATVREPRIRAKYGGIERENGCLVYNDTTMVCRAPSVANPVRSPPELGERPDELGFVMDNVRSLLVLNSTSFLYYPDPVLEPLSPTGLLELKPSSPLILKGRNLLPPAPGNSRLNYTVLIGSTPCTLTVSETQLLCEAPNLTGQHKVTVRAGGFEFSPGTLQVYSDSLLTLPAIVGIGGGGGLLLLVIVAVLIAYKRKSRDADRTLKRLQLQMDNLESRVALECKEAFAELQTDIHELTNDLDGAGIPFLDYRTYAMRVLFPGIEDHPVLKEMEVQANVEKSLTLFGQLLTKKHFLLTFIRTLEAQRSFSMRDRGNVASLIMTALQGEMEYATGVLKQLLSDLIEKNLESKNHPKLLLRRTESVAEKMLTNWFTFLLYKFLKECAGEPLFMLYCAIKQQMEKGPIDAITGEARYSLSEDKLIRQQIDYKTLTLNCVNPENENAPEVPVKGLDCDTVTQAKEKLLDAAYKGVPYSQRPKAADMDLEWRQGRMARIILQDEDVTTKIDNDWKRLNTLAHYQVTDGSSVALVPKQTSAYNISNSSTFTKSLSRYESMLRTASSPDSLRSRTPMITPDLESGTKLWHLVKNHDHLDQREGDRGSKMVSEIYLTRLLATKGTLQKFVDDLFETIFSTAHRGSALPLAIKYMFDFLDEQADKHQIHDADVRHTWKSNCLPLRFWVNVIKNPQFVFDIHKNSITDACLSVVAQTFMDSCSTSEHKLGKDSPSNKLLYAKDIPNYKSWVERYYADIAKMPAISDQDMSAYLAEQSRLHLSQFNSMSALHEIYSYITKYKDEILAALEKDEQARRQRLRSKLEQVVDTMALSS

Substance: 5′-GCCACATATCTGCACTGGTCCTTGA-3′ (all phosphorodiamidate morpholino (PMO)) [morpholino sequence against PlexA1, morpholino oligonucleotide for knockdown of PlexA1 in the zebra fish]
abnormal angiogenic sprouts in intersegmental vessels (PlexA1): significant number of abnormal angiogenic sprouts

percent change of PlexA1-NRP1 interactions (proximity ligation, tumor sections) [1]: -48.5%
percent reduction of NRP1/PlexA1 complexes (proximity ligation, U373MG) [2]: 29.4%
percent reduction of NRP1 co-immunoprecipitated with PlexA1 (VEGF) [3]: 39.4%
percent reduction of PlexA4 co-immunoprecipitated with PlexA1 (VEGF) [3]: 35.4%
Substance: MTP-PlexA1, synthetic transmembrane peptide mimicking the TMD of PlexA1

Substance: TFIIATVEGVLLFLILVVVVGILIKRR [MTP-Neu, reference compound]
disruption of NRP1/PlexA1 dimers (NRP1/PlexA1 complexes): unrelated MTP-Neu peptide
interaction with NRP1 or PlexA1 (NRP1 or PlexA1): not interact with NRP1 or PlexA1

— paper PMC5295395, “Inhibition of PlexA1-mediated brain tumor growth and tumor-associated angiogenesis using a transmembrane domain targeting peptide” (Oncotarget, 2016)
